Test results published in article PMC5270756.

Substrate: c1cc2ccc3cccc4ccc(c1)c2c34
Test: oxidation kinetics
Format: biochemical, Homo sapiens
Conditions: heme; NADPH

B1: P450 1A1 (Homo sapiens) (protein)
chain: MLFPISMSATEFLLASVIFCLVFWVIRASRPQVPKGLKNPPGPWGWPLIGHMLTLGKNPHLALSRMSQQYGDVLQIRIGSTPVVVLSGLDTIRQALVRQGDDFKGRPDLYTFTLISNGQSMSFSPDSGPVWAARRRLAQNGLKSFSIASDPASSTSCYLEEHVSKEAEVLISTLQELMAGPGHFNPYRYVVVSVTNVICAICFGRRYDHNHQELLSLVNLNNNFGEVVGSGNPADFIPILRYLPNPSLNAFKDLNEKFYSFMQKMVKEHYKTFEKGHIRDITDSLIEHCQEKQLDENANVQLSDEKIINIVLDLFGAGFDTVTTAISWSLMYLVMNPRVQRKIQEELDTVIGRSRRPRLSDRSHLPYMEAFILETFRHSSFVPFTIPHSTTRDTSLKGFYIPKGRCVFVNQWQINHDQKLWVNPSEFLPERFLTPDGAIDKVLSEKVIIFGMGKRKCIGETIARWEVFLFLAILLQRVEFSVPLGVKVDMTPIYGLTMKHACCEHFQMQLRS
B1 gave a Km of 1.7 µM.
